Target: CdiA-CT_(PA0041), C-terminal (CT) toxin domain of CdiA_(PA0041) of P. aeruginosa PAO1 (P. aeruginosa PAO1)

With “CdiI_(PA2462)-His6, immunity protein of the cdi_(PA2462) locus of P. aeruginosa PAO1 (natural protein)” as the substance, how does the decrease of CFU/ml of E. coli co-producing CdiA-CT (PA0041) (1% arabinose) with the non-cognate CdiI (PA2462)-His6 (1 mM IPTG), after 6 h of culture: no protection read?
Its decrease of CFU/ml of E. coli co-producing CdiA-CT (PA0041) (1% arabinose) with the non-cognate CdiI (PA2462)-His6 (1 mM IPTG), after 6 h of culture: no protection is 6 logs.
